Assay results as given in PMC7593903.

biological target: T1, ZafA (Aspergillus fumigatus (FGSC A1163 akuB(KU80)-delta pyrG1 is the study strain; cDNA source 'fungal cDNA')) (UniProt A3QX02); assay: EMSA; conditions: 10 mM Tris-HCl pH 8.0, 50 mM NaCl, 1 mM MgCl2, 500 uM EDTA, 500 uM DTT, 4% glycerol; 500 ng ZafA, 5 ng probe; 30 min at 25 C; Zn/Cu added 10 min after start of …
T1 sequence: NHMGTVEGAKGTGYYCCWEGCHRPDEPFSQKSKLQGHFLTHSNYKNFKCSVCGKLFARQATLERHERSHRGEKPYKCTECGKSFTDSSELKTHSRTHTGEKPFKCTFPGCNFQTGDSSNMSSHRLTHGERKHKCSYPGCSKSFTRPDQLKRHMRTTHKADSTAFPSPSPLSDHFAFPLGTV

| Sequence | binding |
| --- | --- |
| TGCCGCCATTGTTCAGCAGTGCGGTGCTGTCAAGGTCAAGGTCAAGGACGGCCTTCTCCAAGGATGTCACATACAAAGGGAATAGACTGAATAAATCATTTCCTCGGCAACGATCCGA (double strand) [CtrA1 promoter EMSA probe, 118 bp] | no binding |
| CTCAAAGCTCGCTCATCGGATTTTTGATTATCAGTTTTGCGAGACCAAGCATGATAGTGACAGAGCATTCAAGGTGAGAATGTGAAGAATGCGTGGCGGCGTAGCATTCTTACT (double strand) [CtrA2 promoter EMSA probe, 114 bp] | no binding |
| AAGGGCCCAGGGCCTGTCTTGTTGTACGACTTCACTTTCTCCCAGGGTGCCACTGCTTGCTATCTCTATGTAGATAACCGCTGTCTTTCCTCTTTTTTTGACCCTTTCTTCTATTGCTCTGGTCTGCT (double strand) [CtrC promoter EMSA probe, 128 bp] | binds |
| TACCAGGGCCCCTTTCCCTCAAGTTGCTCGCACAGATCTGGATGTTACTTTCATCGAATATATACACGTGGGAAGCTCCCAAGGTCCTCTTGGAT (double strand) [ZafA promoter EMSA probe, 95 bp] | binds |

biological target: T1, ZafA (Aspergillus fumigatus (FGSC A1163 akuB(KU80)-delta pyrG1 is the study strain; cDNA source 'fungal cDNA')); assay: competition; conditions: 10 mM Tris-HCl pH 8.0, 50 mM NaCl, 1 mM MgCl2, 500 uM EDTA, 500 uM DTT, 4% glycerol; 500 ng ZafA, 5 ng probe; 30 min at 25 C; Zn/Cu added 10 min after start of …

| Sequence | binding |
| --- | --- |
| AAGGGCCCAGGGCCTGTCTTGTTGTACGACTTCACTTTCTCCCAGGGTGCCACTGCTTGCTATCTCTATGTAGATAACCGCTGTCTTTCCTCTTTTTTTGACCCTTTCTTCTATTGCTCTGGTCTGCT (double strand) [CtrC promoter fragment, unlabeled] | binds |
| AGCAGACCAGAGCAATAGAAGAAAGGGTCAAAAAAAGAGGAAAGACAGCGGTTATCTACATAGAGATAGCAAGCAGTGGCTGGGACGGAGAAAGTGAAGTCGTACAACAAGACAGGCCCTGGGCCCTT (double strand) | no binding |
